{"source": "patent US20240124615A1", "about": "(HEFEI TG IMMUNOPHARMA, published 2024)"}
{"biological_target": "T1, Human B7H6 (ACRO biosystems, cat. No. B76-H52H8) (human, UniProt Q68D85 25-262)", "T1 construct": "Bought antigen; also called B7H6 antigen; human B7H6 protein", "T1 sequence (looked up)": "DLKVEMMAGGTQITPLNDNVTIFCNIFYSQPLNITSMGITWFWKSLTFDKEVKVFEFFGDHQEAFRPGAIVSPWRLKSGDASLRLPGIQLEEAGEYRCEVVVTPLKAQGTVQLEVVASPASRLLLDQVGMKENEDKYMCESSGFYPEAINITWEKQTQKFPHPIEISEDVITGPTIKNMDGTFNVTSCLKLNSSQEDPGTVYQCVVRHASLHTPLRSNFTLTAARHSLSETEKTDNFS", "test": "ELISA, B7H6 coated, HRP anti-human IgG detection", "method": "Human B7H6 (ACRO biosystems, cat. No. B76-H52H8) and human CD3 antigen (ACRO biosystems, cat. No. CDD-H52W1) were diluted to 2 μg/mL with coating buffer (35 mM NaHCO₃, 15 mM Na₂CO₃, pH 9.6), respectively. 100 μL of the diluted solution was added to each well of an ELISA plate at 4° C. overnight, and then washes with PBST (0.05% Tween 20-PBS, pH 7.2) 3 times. 300 μL of blocking buffer (1% BSA, 0.05% Tween20-PBS, pH 7.2) was added to the plate and allowed to stand at room temperature for 2 h, followed by washing with PBST three times. The corresponding bispecific antibody was added to each well and incubated at room temperature for 1 h, followed by washing with PBST three times. 100 μL of HRP-rabbit anti human IgG secondary antibody (Boster, cat. No. BA1070) diluted in blocking buffer was added to each well and incubated for 1 h at room temperature, followed by washing with PBST three times. TMB was added into each well. The plate was kept away from light at room temperature for 2-5 min, the reaction was stopped by adding 2 M sulfuric acid in each well, and finally OD450 values were read with microplate reader."}
{"binder": "CD3xB7H6-10 bispecific antibody (bispecific antibody, human IgG1, L234A L235A, Heterodimer of two scFv-Fc units, knob-into-hole human IgG1 Fc; name formed by analogy with CD3xB7H6-14) chain 1: not shown chain 2: DIVLTQTPLSLSVTPGQPASISCKASQSVDYDGDSYMNWYLQKPGQPPQLLIYAASTLHSGVPDRFSGSGSGTDFTLKISRVEAEDVGVYYCQQSKEDPRTFGQGTKLEIKGGGGSGGGGSGGGGSEVQLVQSGAEVKKPGASVKVSCKASGYTFTDYNMDWVRQAPGQGLEWIGDINPNNGGTLYNQKFRGRVTLTVDTSISTAYMELSRLRSDDTAVYYCARSEVFYGNYADYWGQGTTVTVSSEPKSCDKTHTCPPCPAPEAAGGPSVFLFPPKPKDTLMISRTPEVTCVVVDVSHEDPEVKFNWYVDGVEVHNAKTKPREEQYNSTYRVVSVLTVLHQDWLNGKEYKCKVSNKALPAPIEKTISKAKGQPREPQVCTLPPSRDELTKNQVSLSCAVKGFYPSDIAVEWESNGQPENNYKTTPPVLDSDGSFFLVSKLTVDKSRWQQGNVFSCSVMHEALHNHYTQKSLSLSPGK", "binding result": "binds"}
{"binder": "CD3xB7H6-9 bispecific antibody (bispecific antibody, human IgG1, L234A L235A, Heterodimer of two scFv-Fc units, knob-into-hole human IgG1 Fc; name formed by analogy with CD3xB7H6-14) chain 1: not shown chain 2: DIVLTQTPLSLSVTPGQPASISCKASQSVDYDGDSYMNWYLQKPGQPPQLLIYAASTLHSGVPDRFSGSGSGTDFTLKISRVEAEDVGVYYCQQSKEDPRTFGQGTKLEIKGGGGSGGGGSGGGGSEVQLVQSGAEVKKPGASVKVSCKASGYTFTDYNMDWVRQAPGQGLEWMGDINPNNGGTLYNQKFRGRVTMTVDTSISTAYMELSRLRSDDTAVYYCARSEVFYGNYADYWGQGTTVTVSSEPKSCDKTHTCPPCPAPEAAGGPSVFLFPPKPKDTLMISRTPEVTCVVVDVSHEDPEVKFNWYVDGVEVHNAKTKPREEQYNSTYRVVSVLTVLHQDWLNGKEYKCKVSNKALPAPIEKTISKAKGQPREPQVCTLPPSRDELTKNQVSLSCAVKGFYPSDIAVEWESNGQPENNYKTTPPVLDSDGSFFLVSKLTVDKSRWQQGNVFSCSVMHEALHNHYTQKSLSLSPGK", "binding result": "binds"}
{"binder": "CD3xB7H6-2 bispecific antibody (bispecific antibody, human IgG1, L234A L235A, Heterodimer of two scFv-Fc units, knob-into-hole human IgG1 Fc; name formed by analogy with CD3xB7H6-14) chain 1: not shown chain 2: DIVLTQSPDSLAVSLGERATINCKASQSVDYDGDSYMNWYQQKPGQPPKLLIYAASTLHSGVPDRFSGSGSGTDFTLTISSLQAEDVAVYYCQQSKEDPRTFGQGTKLEIKGGGGSGGGGSGGGGSEVQLVQSGAEVKKPGASVKVSCKASGYTFTDYNMDWVRQAPGQGLEWIGDINPNNGGTLYNQKFRGRVTLTVDTSISTAYMELSRLRSDDTAVYYCARSEVFYGNYADYWGQGTTVTVSSEPKSCDKTHTCPPCPAPEAAGGPSVFLFPPKPKDTLMISRTPEVTCVVVDVSHEDPEVKFNWYVDGVEVHNAKTKPREEQYNSTYRVVSVLTVLHQDWLNGKEYKCKVSNKALPAPIEKTISKAKGQPREPQVCTLPPSRDELTKNQVSLSCAVKGFYPSDIAVEWESNGQPENNYKTTPPVLDSDGSFFLVSKLTVDKSRWQQGNVFSCSVMHEALHNHYTQKSLSLSPGK", "binding result": "binds"}
{"binder": "CD3xB7H6-7 bispecific antibody (bispecific antibody, human IgG1, L234A L235A, Heterodimer of two scFv-Fc units, knob-into-hole human IgG1 Fc; name formed by analogy with CD3xB7H6-14) chain 1: not shown chain 2: DIVLTQSPDSLAVSLGERATINCKASQSVDYDGDSYMNWYQQKPGQPPKLLIYAASTLHSGIPDRFSGSGSGTDFTLTISSLQAEDVAVYYCQQSKEDPRTFGQGTKLEIKGGGGSGGGGSGGGGSEVQLVQSGAEVKKPGASVKVSCKASGYTFTDYNMDWVRQAPGQGLEWIGDINPNNGGTLYNQKFRGRVTLTVDKSISTAYMELSRLRSDDTAVYYCARSEVFYGNYADYWGQGTTVTVSSEPKSCDKTHTCPPCPAPEAAGGPSVFLFPPKPKDTLMISRTPEVTCVVVDVSHEDPEVKFNWYVDGVEVHNAKTKPREEQYNSTYRVVSVLTVLHQDWLNGKEYKCKVSNKALPAPIEKTISKAKGQPREPQVCTLPPSRDELTKNQVSLSCAVKGFYPSDIAVEWESNGQPENNYKTTPPVLDSDGSFFLVSKLTVDKSRWQQGNVFSCSVMHEALHNHYTQKSLSLSPGK", "binding result": "binds"}
{"binder": "CD3xB7H6-6 bispecific antibody (bispecific antibody, human IgG1, L234A L235A, Heterodimer of two scFv-Fc units, knob-into-hole human IgG1 Fc; name formed by analogy with CD3xB7H6-14) chain 1: not shown chain 2: DIVLTQSPDSLAVSLGERATINCKASQSVDYDGDSYMNWYQQKPGQPPKLLIYAASTLHSGIPDRFSGSGSGTDFTLTISSLQAEDVAVYYCQQSKEDPRTFGQGTKLEIKGGGGSGGGGSGGGGSEVQLVQSGAEVKKPGASVKVSCKASGYTFTDYNMDWVRQAPGQGLEWIGDINPNNGGTLYNQKFRGRVTLTVDTSISTAYMELSRLRSDDTAVYYCARSEVFYGNYADYWGQGTTVTVSSEPKSCDKTHTCPPCPAPEAAGGPSVFLFPPKPKDTLMISRTPEVTCVVVDVSHEDPEVKFNWYVDGVEVHNAKTKPREEQYNSTYRVVSVLTVLHQDWLNGKEYKCKVSNKALPAPIEKTISKAKGQPREPQVCTLPPSRDELTKNQVSLSCAVKGFYPSDIAVEWESNGQPENNYKTTPPVLDSDGSFFLVSKLTVDKSRWQQGNVFSCSVMHEALHNHYTQKSLSLSPGK", "binding result": "binds"}
{"binder": "CD3xB7H6-5 bispecific antibody (bispecific antibody, human IgG1, L234A L235A, Heterodimer of two scFv-Fc units, knob-into-hole human IgG1 Fc; name formed by analogy with CD3xB7H6-14) chain 1: not shown chain 2: DIVLTQSPDSLAVSLGERATINCKASQSVDYDGDSYMNWYQQKPGQPPKLLIYAASTLHSGIPDRFSGSGSGTDFTLTISSLQAEDVAVYYCQQSKEDPRTFGQGTKLEIKGGGGSGGGGSGGGGSEVQLVQSGAEVKKPGASVKVSCKASGYTFTDYNMDWVRQAPGQGLEWMGDINPNNGGTLYNQKFRGRVTMTVDTSISTAYMELSRLRSDDTAVYYCARSEVFYGNYADYWGQGTTVTVSSEPKSCDKTHTCPPCPAPEAAGGPSVFLFPPKPKDTLMISRTPEVTCVVVDVSHEDPEVKFNWYVDGVEVHNAKTKPREEQYNSTYRVVSVLTVLHQDWLNGKEYKCKVSNKALPAPIEKTISKAKGQPREPQVCTLPPSRDELTKNQVSLSCAVKGFYPSDIAVEWESNGQPENNYKTTPPVLDSDGSFFLVSKLTVDKSRWQQGNVFSCSVMHEALHNHYTQKSLSLSPGK", "binding result": "binds"}
{"binder": "CD3xB7H6-3 bispecific antibody (bispecific antibody, human IgG1, L234A L235A, Heterodimer of two scFv-Fc units, knob-into-hole human IgG1 Fc; name formed by analogy with CD3xB7H6-14) chain 1: not shown chain 2: DIVLTQSPDSLAVSLGERATINCKASQSVDYDGDSYMNWYQQKPGQPPKLLIYAASTLHSGVPDRFSGSGSGTDFTLTISSLQAEDVAVYYCQQSKEDPRTFGQGTKLEIKGGGGSGGGGSGGGGSEVQLVQSGAEVKKPGASVKVSCKASGYTFTDYNMDWVRQAPGQGLEWIGDINPNNGGTLYNQKFRGRVTLTVDKSISTAYMELSRLRSDDTAVYYCARSEVFYGNYADYWGQGTTVTVSSEPKSCDKTHTCPPCPAPEAAGGPSVFLFPPKPKDTLMISRTPEVTCVVVDVSHEDPEVKFNWYVDGVEVHNAKTKPREEQYNSTYRVVSVLTVLHQDWLNGKEYKCKVSNKALPAPIEKTISKAKGQPREPQVCTLPPSRDELTKNQVSLSCAVKGFYPSDIAVEWESNGQPENNYKTTPPVLDSDGSFFLVSKLTVDKSRWQQGNVFSCSVMHEALHNHYTQKSLSLSPGK", "binding result": "binds"}
{"binder": "CD3xB7H6-8 bispecific antibody (bispecific antibody, human IgG1, L234A L235A, Heterodimer of two scFv-Fc units, knob-into-hole human IgG1 Fc; name formed by analogy with CD3xB7H6-14) chain 1: not shown chain 2: DIVLTQSPDSLAVSLGERATINCKASQSVDYDGDSYMNWYQQKPGQPPKLLIYAASTLHSGIPDRFSGSGSGTDFTLTISSLQAEDVAVYYCQQSKEDPRTFGQGTKLEIKGGGGSGGGGSGGGGSEVQLVQSGAEVKKPGASVKVSCKASGYTFTDYNMDWVRQAPGKGLEWIGDINPNNGGTLYNQKFRGRVTLTVDKSISTAYMELSRLRSDDTAVYYCARSEVFYGNYADYWGQGTTVTVSSEPKSCDKTHTCPPCPAPEAAGGPSVFLFPPKPKDTLMISRTPEVTCVVVDVSHEDPEVKFNWYVDGVEVHNAKTKPREEQYNSTYRVVSVLTVLHQDWLNGKEYKCKVSNKALPAPIEKTISKAKGQPREPQVCTLPPSRDELTKNQVSLSCAVKGFYPSDIAVEWESNGQPENNYKTTPPVLDSDGSFFLVSKLTVDKSRWQQGNVFSCSVMHEALHNHYTQKSLSLSPGK", "binding result": "binds"}
{"binder": "CD3xB7H6-4 bispecific antibody (bispecific antibody, human IgG1, L234A L235A, Heterodimer of two scFv-Fc units, knob-into-hole human IgG1 Fc; name formed by analogy with CD3xB7H6-14) chain 1: not shown chain 2: DIVLTQSPDSLAVSLGERATINCKASQSVDYDGDSYMNWYQQKPGQPPKLLIYAASTLHSGVPDRFSGSGSGTDFTLTISSLQAEDVAVYYCQQSKEDPRTFGQGTKLEIKGGGGSGGGGSGGGGSEVQLVQSGAEVKKPGASVKVSCKASGYTFTDYNMDWVRQAPGKGLEWIGDINPNNGGTLYNQKFRGRVTLTVDKSISTAYMELSRLRSDDTAVYYCARSEVFYGNYADYWGQGTTVTVSSEPKSCDKTHTCPPCPAPEAAGGPSVFLFPPKPKDTLMISRTPEVTCVVVDVSHEDPEVKFNWYVDGVEVHNAKTKPREEQYNSTYRVVSVLTVLHQDWLNGKEYKCKVSNKALPAPIEKTISKAKGQPREPQVCTLPPSRDELTKNQVSLSCAVKGFYPSDIAVEWESNGQPENNYKTTPPVLDSDGSFFLVSKLTVDKSRWQQGNVFSCSVMHEALHNHYTQKSLSLSPGK", "binding result": "binds"}
{"binder": "CD3xB7H6-1 bispecific antibody (bispecific antibody, human IgG1, L234A L235A, Heterodimer of two scFv-Fc monovalent units, knob-into-hole human IgG1 Fc; name formed by analogy with the printed CD3xB7H6-14) chain 1: not shown chain 2: DIVLTQSPDSLAVSLGERATINCKASQSVDYDGDSYMNWYQQKPGQPPKLLIYAASTLHSGVPDRFSGSGSGTDFTLTISSLQAEDVAVYYCQQSKEDPRTFGQGTKLEIKGGGGSGGGGSGGGGSEVQLVQSGAEVKKPGASVKVSCKASGYTFTDYNMDWVRQAPGQGLEWMGDINPNNGGTLYNQKFRGRVTMTVDTSISTAYMELSRLRSDDTAVYYCARSEVFYGNYADYWGQGTTVTVSSEPKSCDKTHTCPPCPAPEAAGGPSVFLFPPKPKDTLMISRTPEVTCVVVDVSHEDPEVKFNWYVDGVEVHNAKTKPREEQYNSTYRVVSVLTVLHQDWLNGKEYKCKVSNKALPAPIEKTISKAKGQPREPQVCTLPPSRDELTKNQVSLSCAVKGFYPSDIAVEWESNGQPENNYKTTPPVLDSDGSFFLVSKLTVDKSRWQQGNVFSCSVMHEALHNHYTQKSLSLSPGK", "binding result": "binds"}
